Numbering of substitutions follows the chain as printed.

One test concerns the target T1, human PAC1 receptor (human, UniProt P41586 21-468).
T1 sequence: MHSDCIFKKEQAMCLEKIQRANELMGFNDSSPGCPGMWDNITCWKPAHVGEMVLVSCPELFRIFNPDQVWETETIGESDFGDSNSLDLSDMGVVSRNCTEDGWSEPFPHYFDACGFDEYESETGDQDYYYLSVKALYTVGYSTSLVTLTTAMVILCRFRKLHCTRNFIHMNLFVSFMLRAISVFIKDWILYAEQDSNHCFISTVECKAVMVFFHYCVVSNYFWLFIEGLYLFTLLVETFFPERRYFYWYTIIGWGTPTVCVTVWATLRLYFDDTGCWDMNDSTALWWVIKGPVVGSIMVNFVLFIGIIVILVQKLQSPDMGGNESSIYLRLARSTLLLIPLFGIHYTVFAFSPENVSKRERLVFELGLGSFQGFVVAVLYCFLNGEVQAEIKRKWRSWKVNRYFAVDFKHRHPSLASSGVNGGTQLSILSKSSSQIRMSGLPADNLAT
Kind of test: cell-based or functional assay.

For another test, the target named is human CGRP receptor (human, UniProt Q16602 23-461; O60894 27-148). Briefly: cell-based or functional assay.
Sequence of human CGRP receptor (Q16602 23-461 limits assumed, chain 1 of 2): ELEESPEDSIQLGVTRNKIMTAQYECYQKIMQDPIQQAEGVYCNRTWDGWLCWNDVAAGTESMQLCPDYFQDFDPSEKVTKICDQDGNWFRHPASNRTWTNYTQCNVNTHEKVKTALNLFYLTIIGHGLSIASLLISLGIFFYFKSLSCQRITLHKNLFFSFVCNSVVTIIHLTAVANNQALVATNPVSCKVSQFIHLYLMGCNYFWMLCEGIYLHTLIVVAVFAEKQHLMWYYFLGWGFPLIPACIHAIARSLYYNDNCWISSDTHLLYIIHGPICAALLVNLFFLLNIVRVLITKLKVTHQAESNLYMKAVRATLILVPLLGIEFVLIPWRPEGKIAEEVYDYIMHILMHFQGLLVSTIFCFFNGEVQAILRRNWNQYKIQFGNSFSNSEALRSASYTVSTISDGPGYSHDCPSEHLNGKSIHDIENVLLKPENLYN
Sequence of human CGRP receptor (O60894 27-148 limits assumed, chain 2 of 2): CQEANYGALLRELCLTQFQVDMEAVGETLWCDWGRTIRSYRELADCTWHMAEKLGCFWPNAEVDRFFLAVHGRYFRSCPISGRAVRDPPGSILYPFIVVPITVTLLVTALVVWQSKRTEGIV

B1: iPS:327892 (bispecific antibody, human IgG1, kappa, lambda, N297G)
light 1: not shown
heavy 1: not shown
light 2: QSVLTQPPSVSAAPGQKVTISCSGSSSNIGNNYVSWYQQLPGTAPKLLIYDNNKRPSGIPDRFSGSKSGTSATLAITGLQTGDEADYYCGTWDSRLSAVVFGGGTKLTVLGQPKANPTVTLFPPSSEELQANKATLVCLISDFYPGAVTVAWKADGSPVKAGVETTKPSKQSNNKYAAKSYLSLTPEQWKSHRSYSCQVTHEGSTVEKTVAPTECS
heavy 2: QVQLVESGGGVVQPGRSLRLSCAASGFTFSSFGMHWVRQAPGKGLEWVAVISFDGSIKYSVDSVKGRFTISRDNSKNTLFLQMNSLRAEDTAVYYCARDRLNYYDSSGYYHYKYYGMAVWGQGTTVTVSSASTKGPSVFPLAPSSKSTSGGTAALGCLVKDYFPEPVTVSWNSGALTSGVHTFPAVLQSSGLYSLESVVTVPSSSLGTQTYICNVNHKPSNTKVDKKVEPKSCDKTHTCPPCPAPELLGGPSVFLFPPKPKDTLMISRTPEVTCVVVDVSHEDPEVKFNWYVDGVEVHNAKTKPCEEQYGSTYRCVSVLTVLHQDWLNGKEYKCKVSNKALPAPIEKTISKAKGQPREPQVYTLPPSRKKMTKNQVSLTCLVKGFYPSDIAVEWESNGQPENNYKTTPPVLKSDGSFFLYSKLTVDKSRWQQGNVFSCSVMHEALHNHYTQKSLSLSPGK
Turning to B1, the “% inhibition of human PAC1” value with human PAC1 receptor amounted to 33%. Besides, the “% inhibition of human CGRPR” value with human CGRP receptor amounted to 88%.

B2: iPS:327883 (bispecific antibody, human IgG1, kappa, lambda, N297G)
light 1: DIQMTQSPSSLSASVGDRITITCRASQSISRYLNWYQQKPGKAPKLLIYAASSLQSGIPSRFSGSGSGTDFTLTINSLQPEDFATYFCQQSYSPPFTFGQGTKVDIKRTVAAPSVFIFPPSDEQLKSGTASVVCLLNNFYPREAKVQWKVDNALQSGNSQESVTEQDSKDSTYSLESTLTLSKADYEKHKVYACEVTHQGLSSPVTKSFNRGEC
heavy 1: not shown
light 2: B1 light 2 with A75G
heavy 2: B1 heavy 2 with K370E
As for B2, the “% inhibition of human PAC1” value with human PAC1 receptor was determined as 27%. Also, the “% inhibition of human CGRPR” value with human CGRP receptor was 77%.

B3: iPS:327886 (bispecific antibody, human IgG1, kappa, lambda, N297G)
light 1: B2 light 1
heavy 1: not shown
light 2: B1 light 2 with A75G
heavy 2: B1 heavy 2
As to B3, the “% inhibition of human PAC1” value in the test with human PAC1 receptor was 65%. Moreover, the “% inhibition of human CGRPR” value with human CGRP receptor was determined as 72%.

B4: iPS:327894 (bispecific antibody, human IgG1, kappa, lambda, N297G)
light 1: not shown
heavy 1: not shown
light 2: B1 light 2 with A75G
heavy 2: B1 heavy 2 with D105E, K370E
Take B4: the “% inhibition of human PAC1” value with human PAC1 receptor was found to be 12%. Also, the “% inhibition of human CGRPR” value with human CGRP receptor amounted to 80%.

B5: iPS:327893 (bispecific antibody, human IgG1, kappa, lambda, N297G)
light 1: B2 light 1
heavy 1: not shown
light 2: B1 light 2 with A75G
heavy 2: B1 heavy 2 with D105E, K370E
With B5, the “% inhibition of human PAC1” value with human PAC1 receptor turned out to be 56%. The “% inhibition of human CGRPR” value with human CGRP receptor turned out to be 74%.

B6: iPS:327896 (bispecific antibody, human IgG1, kappa, lambda, N297G)
light 1: B2 light 1
heavy 1: not shown
light 2: B1 light 2 with A75G
heavy 2: B1 heavy 2 with D105E
Turning to B6, the “% inhibition of human PAC1” value with human PAC1 receptor amounted to 28%. The “% inhibition of human CGRPR” value in the test with human CGRP receptor came out at 87%.

B7: iPS:327888 (bispecific antibody, human IgG1, kappa, lambda, N297G)
light 1: B2 light 1
heavy 1: not shown
light 2: B1 light 2
heavy 2: B1 heavy 2 with K370E
As for B7, in the test with human PAC1 receptor, the “% inhibition of human PAC1” value is 56%. For the same molecule, in the test with human CGRP receptor, the “% inhibition of human CGRPR” value was found to be 83%.

B8: iPS:327884 (bispecific antibody, human IgG1, kappa, lambda, N297G)
light 1: not shown
heavy 1: not shown
light 2: B1 light 2 with A75G
heavy 2: B1 heavy 2 with K370E
For the molecule B8, the “% inhibition of human PAC1” value in the test with human PAC1 receptor came out at 8%. The “% inhibition of human CGRPR” value with human CGRP receptor was 78%.

B9: iPS:327885 (bispecific antibody, human IgG1, kappa, lambda, N297G)
light 1: not shown
heavy 1: not shown
light 2: B1 light 2 with A75G, G103K
heavy 2: B1 heavy 2 with G44E, K370E
B9: the “% inhibition of human PAC1” value with human PAC1 receptor was 7%. Also, the “% inhibition of human CGRPR” value in the test with human CGRP receptor worked out at 73%.

B10: iPS:327887 (bispecific antibody, human IgG1, kappa, lambda, N297G)
light 1: not shown
heavy 1: not shown
light 2: B1 light 2 with A75G
heavy 2: B1 heavy 2
In the case of B10, in the test with human PAC1 receptor, the “% inhibition of human PAC1” value was 35%. Besides, the “% inhibition of human CGRPR” value in the test with human CGRP receptor turned out to be 87%.

B11: iPS:327895 (bispecific antibody, human IgG1, kappa, lambda, N297G)
light 1: not shown
heavy 1: not shown
light 2: B1 light 2 with A75G, G103K
heavy 2: B1 heavy 2 with G44E, D105E, K370E
On to B11, for which, in the test with human PAC1 receptor, the “% inhibition of human PAC1” value worked out at 15%. Besides, the “% inhibition of human CGRPR” value with human CGRP receptor stood at 80%.

B12: iPS:327897 (bispecific antibody, human IgG1, kappa, lambda, N297G)
light 1: not shown
heavy 1: not shown
light 2: B1 light 2 with A75G
heavy 2: B1 heavy 2 with D105E
Regarding B12, the “% inhibition of human PAC1” value in the test with human PAC1 receptor came out at 12%. In the test with human CGRP receptor, the “% inhibition of human CGRPR” value was found to be 80%.

B13: iPS:326666 (bispecific antibody, human IgG2, kappa)
light 1: not shown
heavy 1: QVQLQESGPGLVKPSQTLSLTCTVSGGSISSGGYYWSWIRQHPGKGLEWIGYIYYSGNTYYNPSLKSRVTISGDTSKNQFSLKLRSVTAADTAVYYCTRGGAARGMDVWGQGTTVTVSSASTKGPSVFPLAPCSRSTSESTAALGCLVKDYFPEPVTVSWNSGALTSGVHTFPAVLQSSGLYSLKSVVTVPSSNFGTQTYTCNVDHKPSNTKVDKTVERKCCVECPPCPAPPVAGPSVFLFPPKPKDTLMISRTPEVTCVVVDVSHEDPEVQFNWYVDGVEVHNAKTKPREEQFNSTFRVVSVLTVVHQDWLNGKEYKCKVSNKGLPAPIEKTISKTKGQPREPQVYTLPPSREEMTKNQVSLTCLVDGFYPSDIAVEWESNGQPENNYDTTPPMLDSDGSFFLYSDLTVDKSRWQQGNVFSCSVMHEALHNHYTQKSLSLSPGK
light 2: EIVLTQSPGTLSLSPGERATLSCRASQSVSSGYLTWYQQKPGQAPRLLIYGASSRATGIPDRFSGSGSGTDFTLTISRLEPEDFAVYYCQQYGNSLSRFGQGTKLEIKRTVAAPSVFIFPPSDEQLKSGTASVVCLLNNFYPREAKVQWKVDNALQSGNSQESVTEQDSKDSTYSLKSTLTLSKADYEKHKVYACEVTHQGLSSPVTKSFNRGEC
heavy 2: QVQLVESGGGVVQPGRSLRLSCAASGFTFSSYGMHWVRQAPGKGLEWVAVIWYDGSNKYYADSVKGRFIISRDKSKNTLYLQMNSLRAEDTAVYYCARAGGIAAAGLYYYYGMDVWGQGTTVTVSSASTKGPSVFPLAPCSRSTSESTAALGCLVKDYFPEPVTVSWNSGALTSGVHTFPAVLQSSGLYSLESVVTVPSSNFGTQTYTCNVDHKPSNTKVDKTVERKCCVECPPCPAPPVAGPSVFLFPPKPKDTLMISRTPEVTCVVVDVSHEDPEVQFNWYVDGVEVHNAKTKPREEQFNSTFRVVSVLTVVHQDWLNGKEYKCKVSNKGLPAPIEKTISKTKGQPREPQVYTLPPSRKKMTKNQVSLTCLVKGFYPSDIAVEWESNGQPENNYKTTPPMLKSDGSFFLYSKLTVDKSRWQQGNVFSCSVMHEALHNHYTQKSLSLSPGK
With B13, in the test with human PAC1 receptor, the “% inhibition of human PAC1” value came out at 15%. The “% inhibition of human CGRPR” value in the test with human CGRP receptor is 74%.

B14: iPS:328031 (bispecific antibody, human IgG1, kappa, N297G)
light 1: B2 light 1
heavy 1: not shown
light 2: B13 light 2
heavy 2: not shown
In the case of B14, the “% inhibition of human PAC1” value in the test with human PAC1 receptor amounted to 27%. For the same molecule, the “% inhibition of human CGRPR” value with human CGRP receptor is 75%.

B15: iPS:326645 (bispecific antibody, human IgG2, kappa, lambda)
light 1: not shown
heavy 1: B13 heavy 1
light 2: not shown
heavy 2: not shown
As for B15, the “% inhibition of human PAC1” value with human PAC1 receptor stood at 59%. Also, the “% inhibition of human CGRPR” value with human CGRP receptor came to 67%.

The values are drawn from patent US20170306033A1 (Amgen, published 2017).
